Test results: PMC4987290 (The Journal of Cell Biology, 2016)
One block for each molecule: values may come before it.

Legend:
Myo1E (myosin 1E) = Myo1E (myosin 1E) (UniProt Q12965); experiment: reciprocal co-IP of endogenous proteins, immunoblot; settings: sites S202
recombinant SH3P2 = molecular target: T1, recombinant SH3P2 (human, UniProt Q92882 1-214); experiment: pull-down
T1 sequence (looked up): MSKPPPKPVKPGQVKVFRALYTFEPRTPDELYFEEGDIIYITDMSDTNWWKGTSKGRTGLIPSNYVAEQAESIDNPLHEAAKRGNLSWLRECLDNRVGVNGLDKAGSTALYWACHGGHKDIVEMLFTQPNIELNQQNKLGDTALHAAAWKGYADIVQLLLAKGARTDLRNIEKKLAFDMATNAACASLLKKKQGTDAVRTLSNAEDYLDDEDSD

other: % of lysate Myo1E associated with SH3P2 (Myo1E (myosin 1E); reference: serum-deprived cells): weaker; reference 78.4 ± 6.8
Molecule: SH3P2 (from UniProt Q92882) 10% FBS, 10 min

other: % of lysate Myo1E associated with SH3P2 (Myo1E (myosin 1E); reference: untreated cells): stronger; reference 6.1 ± 2.1
Molecule: SH3P2 (from UniProt Q92882) 10 µM PD184352, 4 h

binding result (recombinant SH3P2): binds
B1: GST-Myo1E(SH3) (domain or fragment, human, UniProt Q12965 1039-1108, looked up)
chain: AGGRPKPQPKPKPQVPQCKALYAYDAQDTDELSFNANDIIDIIKEDPSGWWTGRLRGKQGLFPNNYVTKI
